Legend:
Experiment in all cases: co-sedimentation
[1] = target: T1, Rabbit skeletal muscle α-actin filaments (F-actin) (rabbit, UniProt P68135 1-377)
[2] = target: T1, Rabbit skeletal muscle α-actin …; remark: listed apart in the source
[3] = target: Yeast (Saccharomyces cerevisiae) actin, wild type, filaments (Saccharomyces cerevisiae, UniProt P60010 1-375)

B1: Human metavinculin tail (MVT, residues 879-1134) (domain or fragment)
chain: EEKDEEFPEQKAGEVINQPMMMAARQLHDEARKWSSKPGIPAAEVGIGVVAEADAADAAGFPVPPDMEDDYEPELLLMPSNQPVNQPILAAAQSLHREATKWSSKGNDIIAAAKRMALLMAEMSRLVRGGSGTKRALIQCAKDIAKASDEVTRLAKEVAKQCTDKRIRTNLLQVCERIPTISTQLKILSTVKATMLGRTNISDEESEQATEMLVHNAQNLMQSVKETVREAEAASIKIRTDAGFTLRWVRKTPWYQ
- stoichiometry N [1]: 1
- Kd [2]: 560 ± 90 nM

B2: Human vinculin tail (VT, residues 879-1066) (domain or fragment, UniProt P18206-2 879-1066, looked up)
chain: EEKDEEFPEQKAGEVINQPMMMAARQLHDEARKWSSKGNDIIAAAKRMALLMAEMSRLVRGGSGTKRALIQCAKDIAKASDEVTRLAKEVAKQCTDKRIRTNLLQVCERIPTISTQLKILSTVKATMLGRTNISDEESEQATEMLVHNAQNLMQSVKETVREAEAASIKIRTDAGFTLRWVRKTPWYQ
- stoichiometry N [1]: 1
- binding result [3]: binds
